Test results: the supplement of paper PMC5998384

How the values were obtained:
HeLa Kyoto [1] = test: solubility change mitosis vs G1/S (difference of NP-40 vs SDS log2 ratios) (log2 ratio difference); higher = more soluble in mitosis
HeLa Kyoto [2] = test: solubility in G1/S (NP-40 vs SDS abundance) (log2 ratio); higher = more soluble; conditions: cell cycle stage: G1/S
HeLa Kyoto [3] = test: thermal stability score vs G1/S (z-score of summed log2 fold changes over temperatures); higher = more thermally stable than in G1/S
HeLa Kyoto [4] = test: melting temperature (median over replicates), in situ; higher = more thermally stable
[5] = cell cycle stage: early G1 (4.5 h after nocodazole release)
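For melting temperature (median over replicates), in situ in this document: HeLa Kyoto cells synchronized by double thymidine or nocodazole block, proteins quantified by TMT10plex mass spectrometry, three independent biological replicates.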
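For solubility change mitosis vs G1/S (difference of NP-40 vs SDS log2 ratios) in this document: synchronized HeLa Kyoto cells (double thymidine block for G1/S, nocodazole release for mitosis), protein amounts in NP-40 versus SDS lysates quantified by mass spectrometry, three biological replicates.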
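For solubility in G1/S (NP-40 vs SDS abundance) in this document: HeLa Kyoto cells arrested at G1/S by double thymidine block, proteins quantified by TMT10plex mass spectrometry in mild NP-40 versus SDS extracts, three biological replicates.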
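For thermal stability score vs G1/S (z-score of summed log2 fold changes over temperatures) in this document: synchronized HeLa Kyoto cells, proteins quantified by TMT10plex mass spectrometry, three biological replicates, mitosis taken 0.5 h after nocodazole release, G1/S directly after double thymidine block.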

Row | Sequence | solubility change mitosis (log2) (HeLa Kyoto [1]) | solubility in G1/S (log2) (HeLa Kyoto [2]) | thermal stability score (HeLa Kyoto [3]; [5]) | thermal stability score (HeLa Kyoto [3]; cell cycle stage: mitosis) | melting temperature (HeLa Kyoto [4]; cell cycle stage: G1/S) | melting temperature (HeLa Kyoto [4]; cell cycle stage: mitosis)
1 | MAAAAVAAAAAAAAAASLQVLEMESMETAAAGSAGLAAEVRGSGTVDFGPGPGISAMEASGGDPGPEAEDFECSSHCSELSWRQNEQRRQGLFCDITLCFGGAGGREFRAHRSVLAAATEYFTPLLSGQFSESRSGRVEMRKWSSEPGPEPDTVEAVIEYMYTGRIRVSTGSVHEVLELADRFLLIRLKEFCGEFLKKKLHLSNCVAIHSLAHMYTLSQLALKAADMIRRNFHKVIQDEEFYTLPFHLIRDWLSDLEITVDSEEVLFETVLKWVQRNAEERERYFEELFKLLRLSQMKPTYLTRHVKPERLVANNEVCVKLVADAVERHALRAENIQSGTCQHPTSHVSLLPRYGQNMDVIMVIGGVSEGGDYLSECVGYFVDEDRWVNLPHIHNHLDGHAVAVTESYVYVAGSMEPGFAKTVERYNPNLNTWEHVCSLMTRKHSFGLTEVKGKLYSIGGHGNFSPGFKDVTVYNPELDKWHNLESAPKILRDVKALAIEDRFVYIAARTPVDRDTEDGLKAVITCYDTETRQWQDVESLPLIDNYCFFQMSVVNSNFYQTASCCPKSYCLENEEAVRKIASQVSDEILESLPPEVLSIEGAAICYYKDDVFIIGGWKNSDDIDKQYRKEAYRYCAERKRWMLLPPMPQPRCRATACHVRIPYRYLHGTQRYPMPQNLMWQKDRIRQMQEIHRHALNMRRVPSSQIEC [KLHL11] | -0.089 | -0.226 | 0.384 | 0.29 | 51.8 °C | 50.7 °C
2 | MATGANATPLDFPSKKRKRSRWNQDTMEQKTVIPGMPTVIPPGLTREQERAYIVQLQIEDLTRKLRTGDLGIPPNPEDRSPSPEPIYNSEGKRLNTREFRTRKKLEEERHNLITEMVALNPDFKPPADYKPPATRVSDKVMIPQDEYPEINFVGLLIGPRGNTLKNIEKECNAKIMIRGKGSVKEGKVGRKDGQMLPGEDEPLHALVTANTMENVKKAVEQIRNILKQGIETPEDQNDLRKMQLRELARLNGTLREDDNRILRPWQSSETRSITNTTVCTKCGGAGHIASDCKFQRPGDPQSAQDKARMDKEYLSLMAELGEAPVPASVGSTSGPATTPLASAPRPAAPANNPPPPSLMSTTQSRPPWMNSGPSESRPYHGMHGGGPGGPGGGPHSFPHPLPSLTGGHGGHPMQHNPNGPPPPWMQPPPPPMNQGPHPPGHHGPPPMDQYLGSTPVGSGVYRLHQGKGMMPPPPMGMMPPPPPPPSGQPPPPPSGPLPPWQQQQQQPPPPPPPSSSMASSTPLPWQQNTTTTTTSAGTGSIPPWQQQQAAAAASPGAPQMQGNPTMVPLPPGVQPPLPPGAPPPPPPPPPGSAGMMYAPPPPPPPPMDPSNFVTMMGMGVAGMPPFGMPPAPPPPPPQN [SF1] | 0.135 | 0.255 | -4.58 | -1.85 | 53.4 °C | –
3 | MSNEVETSATNGQPDQQAAPKAPSKKEKKKGPEKTDEYLLARFKGDGVKYKAKLIGIDDVPDARGDKMSQDSMMKLKGMAAAGRSQGQHKQRIWVNISLSGIKIIDEKTGVIEHEHPVNKISFIARDVTDNRAFGYVCGGEGQHQFFAIKTGQQAEPLVVDLKDLFQVIYNVKKKEEEKKKIEEASKAVENGSEALMILDDQTNKLKSGVDQMDLFGDMSTPPDLNSPTESKDILLVDLNSEIDTNQNSLRENPFLTNGITSCSLPRPTPQASFLPENAFSANLNFFPTPNPDPFRDDPFTQPDQSTPSSFDSLKSPDQKKENSSSSSTPLSNGPLNGDVDYFGQQFDQISNRTGKQEAQAGPWPFSSSQTQPAVRTQNGVSEREQNGFSVKSSPNPFVGSPPKGLSIQNGVKQDLESSVQSSPHDSIAIIPPPQSTKPGRGRRTAKSSANDLLASDIFAPPVSEPSGQASPTGQPTALQPNPLDLFKTSAPAPVGPLVGLGGVTVTLPQAGPWNTASLVFNQSPSMAPGAMMGGQPSGFSQPVIFGTSPAVSGWNQPSPFAASTPPPVPVVWGPSASVAPNAWSTTSPLGNPFQSNIFPAPAVSTQPPSMHSSLLVTPPQPPPRAGPPKDISSDAFTALDPLGDKEIKDVKEMFKDFQLRQPPAVPARKGEQTSSGTLSAFASYFNSKVGIPQENADHDDFDANQLLNKINEPPKPAPRQVSLPVTKSTDNAFENPFFKDSFGSSQASVASSQPVSSEMYRDPFGNPFA [DAB2] | -0.113 | 0.277 | 2.68 | 5.04 | 48.5 °C | 50.3 °C
4 | MADLSLADALTEPSPDIEGEIKRDFIATLEAEAFDDVVGETVGKTDYIPLLDVDEKTGNSESKKKPCSETSQIEDTPSSKPTLLANGGHGVEGSDTTGSPTEFLEEKMAYQEYPNSQNWPEDTNFCFQPEQVVDPIQTDPFKMYHDDDLADLVFPSSATADTSIFAGQNDPLKDSYGMSPCNTAVVPQGWSVEALNSPHSESFVSPEAVAEPPQPTAVPLELAKEIEMASEERPPAQALEIMMGLKTTDMAPSKETEMALAKDMALATKTEVALAKDMESPTKLDVTLAKDMQPSMESDMALVKDMELPTEKEVALVKDVRWPTETDVSSAKNVVLPTETEVAPAKDVTLLKETERASPIKMDLAPSKDMGPPKENKKETERASPIKMDLAPSKDMGPPKENKIVPAKDLVLLSEIEVAQANDIISSTEISSAEKVALSSETEVALARDMTLPPETNVILTKDKALPLEAEVAPVKDMAQLPETEIAPAKDVAPSTVKEVGLLKDMSPLSETEMALGKDVTPPPETEVVLIKNVCLPPEMEVALTEDQVPALKTEAPLAKDGVLTLANNVTPAKDVPPLSETEATPVPIKDMEIAQTQKGISEDSHLESLQDVGQSAAPTFMISPETVTGTGKKCSLPAEEDSVLEKLGERKPCNSQPSELSSETSGIARPEEGRPVVSGTGNDITTPPNKELPPSPEKKTKPLATTQPAKTSTSKAKTQPTSLPKQPAPTTIGGLNKKPMSLASGLVPAAPPKRPAVASARPSILPSKDVKPKPIADAKAPEKRASPSKPASAPASRSGSKSTQTVAKTTTAAAVASTGPSSRSPSTLLPKKPTAIKTEGKPAEVKKMTAKSVPADLSRPKSTSTSSMKKTTTLSGTAPAAGVVPSRVKATPMPSRPSTTPFIDKKPTSAKPSSTTPRLSRLATNTSAPDLKNVRSKVGSTENIKHQPGGGRAKVEKKTEAAATTRKPESNAVTKTAGPIASAQKQPAGKVQIVSKKVSYSHIQSKCGSKDNIKHVPGGGNVQIQNKKVDISKVSSKCGSKANIKHKPGGGDVKIESQKLNFKEKAQAKVGSLDNVGHLPAGGAVKTEGGGSEAPLCPGPPAGEEPAISEAAPEAGAPTSASGLNGHPTLSGGGDQREAQTLDSQIQETSI [MAP4] | -0.0455 | 0.265 | -3.19 | -3.41 | 59 °C | –
5 | MQKASVLLFLAWVCFLFYAGIALFTSGFLLTRLELTNHSSCQEPPGPGSLPWGSQGKPGACWMASRFSRVVLVLIDALRFDFAQPQHSHVPREPPVSLPFLGKLSSLQRILEIQPHHARLYRSQVDPPTTTMQRLKALTTGSLPTFIDAGSNFASHAIVEDNLIKQLTSAGRRVVFMGDDTWKDLFPGAFSKAFFFPSFNVRDLDTVDNGILEHLYPTMDSGEWDVLIAHFLGVDHCGHKHGPHHPEMAKKLSQMDQVIQGLVERLENDTLLVVAGDHGMTTNGDHGGDSELEVSAALFLYSPTAVFPSTPPEEPEVIPQVSLVPTLALLLGLPIPFGNIGEVMAELFSGGEDSQPHSSALAQASALHLNAQQVSRFLHTYSAATQDLQAKELHQLQNLFSKASADYQWLLQSPKGAEATLPTVIAELQQFLRGARAMCIESWARFSLVRMAGGTALLAASCFICLLASQWAISPGFPFCPLLLTPVAWGLVGAIAYAGLLGTIELKLDLVLLGAVAAVSSFLPFLWKAWAGWGSKRPLATLFPIPGPVLLLLLFRLAVFFSDSFVVAEARATPFLLGSFILLLVVQLHWEGQLLPPKLLTMPRLGTSATTNPPRHNGAYALRLGIGLLLCTRLAGLFHRCPEETPVCHSSPWLSPLASMVGGRAKNLWYGACVAALVALLAAVRLWLRRYGNLKSPEPPMLFVRWGLPLMALGTAAYWALASGADEAPPRLRVLVSGASMVLPRAVAGLAASGLALLLWKPVTVLVKAGAGAPRTRTVLTPFSGPPTSQADLDYVVPQIYRHMQEEFRGRLERTKSQGPLTVAAYQLGSVYSAAMVTALTLLAFPLLLLHAERISLVFLLLFLQSFLLLHLLAAGIPVTTPGPFTVPWQAVSAWALMATQTFYSTGHQPVFPAIHWHAAFVGFPEGHGSCTWLPALLVGANTFASHLLFAVGCPLLLLWPFLCESQGLRKRQQPPGNEADARVRPEEEEEPLMEMRLRDAPQHFYAALLQLGLKYLFILGIQILACALAASILRRHLMVWKVFAPKFIFEAVGFIVSSVGLLLGIALVMRVDGAVSSWFRQLFLAQQR [PIGO] | 0.0305 | -0.193 | -0.415 | -0.374 | 53.6 °C | 52.7 °C
6 | MAGIIKKQILKHLSRFTKNLSPDKINLSTLKGEGELKNLELDEEVLQNMLDLPTWLAINKVFCNKASIRIPWTKLKTHPICLSLDKVIMEMSTCEEPRSPNGPSPIATASGQSEYGFAEKVVEGISVSVNSIVIRIGAKAFNASFELSQLRIYSVNAHWEHGDLRFTRIQDPQRGEVLTFKEINWQMIRIEADATQSSHLEIMCAPVRLITNQSKIRVTLKRRLKDCNVIATKLVLILDDLLWVLTDSQLKAMVQYAKSLSEAIEKSTEQRKSMAPEPTQSSTVVASAQQVKTTQTSNAPDVNDAIVKLFNDFDVKETSHHLVISHLDLHICDDIHAKEKESNRRITGGAMQLSFTQLTIDYYPYHKAGDSCNHWMYFSDATKTKNGWANELLHEFECNVEMLKQAVKDHNVGSPPKSPTHASPQHTQTEKDYPLKGTCRTPSVLSQQSKAKLMSSSVVVRLADFNIYQVSTAEQCRSSPKSMICCNKKSLYLPQEMSAVYIEFTEYYYPDGKDFPIPSPNLYSQLNALQFTVDERSILWLNQFLLDLKQSLNQFMAVYKLNDNSKSDEHVDVRVDGLMLKFVIPSEVKSECHQDQPRAISIQSSEMIATNTRHCPNCRHSDLEALFQDFKDCDFFSKTYTSFPKSCDNFNLLHPIFQRHAHEQDTKMHEIYKGNITPQLNKNTLKTSAATDVWAVYFSQFWIDYEGMKSGKGRPISFVDSFPLSIWICQPTRYAESQKEPQTCNQVSLNTSQSESSDLAGRLKRKKLLKEYYSTESEPLTNGGQKPSSSDTFFRFSPSSSEADIHLLVHVHKHVSMQINHYQYLLLLFLHESLILLSENLRKDVEAVTGSPASQTSICIGILLRSAELALLLHPVDQANTLKSPVSESVSPVVPDYLPTENGDFLSSKRKQISRDINRIRSVTVNHMSDNRSMSVDLSHIPLKDPLLFKSASDTNLQKGISFMDYLSDKHLGKISEDESSGLVYKSGSGEIGSETSDKKDSFYTDSSSILNYREDSNILSFDSDGNQNILSSTLTSKGNETIESIFKAEDLLPEAASLSENLDISKEETPPVRTLKSQSSLSGKPKERCPPNLAPLCVSYKNMKRSSSQMSLDTISLDSMILEEQLLESDGSDSHMFLEKGNKKNSTTNYRGTAESVNAGANLQNYGETSPDAISTNSEGAQENHDDLMSVVVFKITGVNGEIDIRGEDTEICLQVNQVTPDQLGNISLRHYLCNRPVGSDQKAVIHSKSSPEISLRFESGPGAVIHSLLAEKNGFLQCHIENFSTEFLTSSLMNIQHFLEDETVATVMPMKIQVSNTKINLKDDSPRSSTVSLEPAPVTVHIDHLVVERSDDGSFHIRDSHMLNTGNDLKENVKSDSVLLTSGKYDLKKQRSVTQATQTSPGVPWPSQSANFPEFSFDFTREQLMEENESLKQELAKAKMALAEAHLEKDALLHHIKKMTVE [UHRF1BP1L] | -0.181 | -0.0678 | -1.27 | -1.34 | 53.9 °C | 53.8 °C
